In paper PMC9436372:

T1: ATF3 (recombinant human) (Homo sapiens, UniProt P18847 1-181)
T1 sequence: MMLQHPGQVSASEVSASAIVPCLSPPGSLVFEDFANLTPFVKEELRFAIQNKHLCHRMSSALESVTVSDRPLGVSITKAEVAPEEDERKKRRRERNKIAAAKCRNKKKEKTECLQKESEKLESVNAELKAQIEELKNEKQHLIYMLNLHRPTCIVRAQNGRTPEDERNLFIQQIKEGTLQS

B1: HyATF3-1 probe (dsDNA)
DNA 1: GAAAAAAACGTCAGAAAACAAGTGACGTATTATA
DNA 2: TATAATACGTCACTTGTTTTCTGACGTTTTTTTC
B2: HyATF3-2 probe (dsDNA)
DNA 1: TTATGTTTACTGACGTTTCCCTGCCTTCTA
DNA 2: TAGAAGGCAGGGAAACGTCAGTAAACATAA

Target: T1, ATF3 (recombinant human)
Assay: EMSA

Binder	binding result
B1	binds
B2	binds
